Assay results published in patent US20250250357A1 (NANJING ZAIMING PHARMACEUTICAL, published 2025).
Residue numbers refer to the chain shown, from its start.

B1: S009-F8-13.8 (antibody, human IgG1, kappa, V domains shown)
VH: EFQLQQSGPELVKPGASVKISCKASGYSFTDYNMNWVKQTNGKSLEWIGIINPNYGTSSYNQKFKGKATLTVDQSSSTAYMQLNSLTSEDSAVYYCARVGRDNSGFDYWGQGTTLTVSS
VL: QIVLTQSPAIMSASPGEKVTMTCSASSSVSYMYWYQQKPGSSPRLLIYDTSNLASGVPVRFSGSGSGTSYSLTISRMEAEDAATYYCQQWSSYPPTFGSGTELEIKR
B2: S009-F8-15.19 (antibody, human IgG1, kappa, V domains shown)
VH: EFQLQQSGPELVKPGASVKISCKASGYSFTDYNMNWVKQSNGKSLEWIGIINPYYGTTSNNQNFKGKATLTVDQSSSTAYMQLNSLTSDDSAVYYCARWLRRDAMDYWGQGTSVTVSS
VL: DIVMTPSHKFMSTSVGDRVSIACKASQDVGSSVAWYQQKPGQSPKLLIYWTSTRHTGVPDRFTGSGSGTDFTLTISNVQSEDLADYFCQQYSSYPWTFGGGTKLEIKR
B3: S009-F8-24.14 (antibody, human IgG1, kappa, V domains shown)
VH: EFQLQQSGPELVKPGASVKISCKASGYSFTDYNMNWVKLSNGKSLEWIGVIIPNYGTSSYNQKFKGKATLTVDQSSSTAYMQLNSLTSEDSAVYYCARWDNYYGSSLDYWGQGTTLTVSS
VL: DIVMTQSQKFMSTTVGDRVSITCKASQNVGTAVAWYQQKPGQSPKLLIYSASNRYTGVPDRFTGSGSGTDFILTISNMQSEDLADYFCQQYSSYPLTFGAGTKLELKR
B4: S009-F8-22.23 (antibody, human IgG1, kappa, V domains shown)
VH: QVQLKQSGPGLVQPSQSLSITCTVSGFSLFSYGVHWVRQSPGKGLEWLGVIWSGGSTDYNAAFISRLSISKDNSKSQVFFKMNSLQADDTAMYYCARNGGSMITTLYYAMDYWGQGTSVTVSS
VL: DVVMTQTPLSLPVSLGDQASISCRSSQSLVHSYGNTYLHWYLQKPGQSPKLLIYKVSNRFSGVPDRFSGSGSGTDFTLKISRVEAEDLGVYFCSQSTHIPFTFGGGTKLEIKR
B5: S009-F8-18.9 (antibody, human IgG1, kappa, V domains shown)
VH: EFQLQQSGPELVKPGASVKISCKASGYSFTDYNMNWVKQSNGKSLEWIGIINPNYGTTSYNQKFKGRATLTVDQSSSTAYVQLNSLTSEDSAVYYCARGGYDNEAMDYWGQGTSVTVSS
VL: QIVLTQSPAIMSASPGEKVTMTCSASSSVSYMHWYQQKSGTSPKRWIYDTSKLASGVPARFSGSGSGTSYSLTISSMEAEDAATYYCQQWSSNPPTFGAGTKLELKR
B6: S009-F8-19.21 (antibody, human IgG1, kappa, V domains shown)
VH: B5 VH with A24T, I50V, S59G, R67K, V81M, N103G, Q111H
VL: B5 VL with S30N, N93Y, A99G, L105I

Target: T1, human MSLN-R1-his protein (human, UniProt Q13421 296-390)
T1 construct: Region 1 of human mesothelin, made in HEK293E cells, His-tagged; also called human MSLN-R1 protein; hMSLN-R1-his; not shown: His tag
T1 chain: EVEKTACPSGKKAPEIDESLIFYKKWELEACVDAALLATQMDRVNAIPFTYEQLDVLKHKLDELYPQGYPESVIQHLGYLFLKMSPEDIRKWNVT
Assay: ELISA on coated MSLN-R1; antibody 1 nM

| Binder | OD450 [OD450] |
| --- | --- |
| B1 | 1.8 |
| B2 | 0.54 |
| B3 | 1.63 |
| B4 | 2.34 |
| B5 | 1.96 |
| B6 | 1.82 |

target: T2, human MSLN-R2-his protein (human, UniProt Q13421 391-486); assay: ELISA on coated MSLN-R2; antibody 1 nM
T2 construct: Region 2 of human mesothelin, made in HEK293E cells, His-tagged; also called human MSLN-R2 protein; hMSLN-R2-his; not shown: His tag
T2 sequence (Q13421 other isoform, or with tags, fused parts or gaps): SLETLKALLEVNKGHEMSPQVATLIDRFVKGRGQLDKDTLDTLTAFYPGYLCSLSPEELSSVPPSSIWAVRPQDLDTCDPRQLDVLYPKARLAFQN

| Binder | OD450 [OD450] |
| --- | --- |
| B1 | 0.04 |
| B2 | 0.04 |
| B3 | 0.04 |
| B4 | 0.08 |
| B5 | 0.05 |
| B6 | 0.05 |

target: T3, human MSLN-R3-his protein (human, UniProt Q13421 487-598); assay: ELISA on coated MSLN-R3; antibody 1 nM
T3 construct: Region 3 of human mesothelin, made in HEK293E cells, His-tagged; also called human MSLN-R3 protein; hMSLN-R3-his; not shown: His tag
T3 sequence (Q13421 495-606): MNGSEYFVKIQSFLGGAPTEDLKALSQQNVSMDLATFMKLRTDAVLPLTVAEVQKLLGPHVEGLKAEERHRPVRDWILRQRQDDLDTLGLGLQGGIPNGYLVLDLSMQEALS

| Binder | OD450 [OD450] |
| --- | --- |
| B1 | 0.04 |
| B2 | 0.04 |
| B3 | 0.04 |
| B4 | 0.04 |
| B5 | 0.05 |
| B6 | 0.04 |

Target: T1, human MSLN-R1-his protein
Assay: ELISA on coated MSLN-R1; antibody 10 nM
Protocol: (§1) The plate was sealed with a plastic film and incubated at 4° C. overnight. The next day, the plate was washed twice with PBST, and a blocking buffer [PBS+2% (w/w) BSA] was added for blocking at room temperature for 2 h. The blocking buffer was discarded, and a chimeric antibody or negative control antibody serially diluted from 100 nM was added at 50 μL/well. After incubation at 37° C. for 2 h, the plate was washed 3 times with PBST. […] After incubation at 37° C. for 2 h, the plate was washed 5 times with PBST. A TMB substrate was added at 50 μL/well for incubation at room temperature for 5-10 min, and then a stop solution (1.0 N HCl) was added at 50 μL/well.

| Binder | OD450 [OD450] |
| --- | --- |
| B1 | 2.1 |
| B2 | 1.55 |
| B3 | 2.24 |
| B4 | 2.51 |
| B5 | 2.12 |
| B6 | 2.11 |

target: T2, human MSLN-R2-his protein; assay: ELISA on coated MSLN-R2; antibody 10 nM
Protocol: as §1

| Binder | OD450 [OD450] |
| --- | --- |
| B1 | 0.05 |
| B2 | 0.05 |
| B3 | 0.04 |
| B4 | 0.11 |
| B5 | 0.06 |
| B6 | 0.06 |

target: T3, human MSLN-R3-his protein; assay: ELISA on coated MSLN-R3; antibody 10 nM
Protocol: as §1

| Binder | OD450 [OD450] |
| --- | --- |
| B1 | 0.05 |
| B2 | 0.05 |
| B3 | 0.05 |
| B4 | 0.05 |
| B5 | 0.06 |
| B6 | 0.05 |

Target: T1, human MSLN-R1-his protein
Assay: ELISA on coated MSLN-R1; antibody 0.1 nM

| Binder | OD450 [OD450] |
| --- | --- |
| B1 | 1.26 |
| B2 | 0.1 |
| B3 | 0.64 |
| B4 | 1.72 |
| B5 | 1.73 |
| B6 | 1.46 |

Target: T1, human MSLN-R1-his protein
Assay: ELISA on coated MSLN-R1; antibody 100 nM
Protocol: as §1

| Binder | OD450 [OD450] |
| --- | --- |
| B1 | 2.35 |
| B2 | 2.07 |
| B3 | 2.34 |
| B4 | 2.55 |
| B5 | 2.15 |
| B6 | 2.13 |

target: T2, human MSLN-R2-his protein; assay: ELISA on coated MSLN-R2; antibody 0.1 nM

| Binder | OD450 [OD450] |
| --- | --- |
| B1 | 0.05 |
| B2 | 0.04 |
| B3 | 0.04 |
| B4 | 0.05 |
| B5 | 0.04 |
| B6 | 0.04 |

target: T2, human MSLN-R2-his protein; assay: ELISA on coated MSLN-R2; antibody 100 nM

| Binder | OD450 [OD450] |
| --- | --- |
| B1 | 0.06 |
| B2 | 0.05 |
| B3 | 0.05 |
| B4 | 0.17 |
| B5 | 0.08 |
| B6 | 0.06 |

target: T3, human MSLN-R3-his protein; assay: ELISA on coated MSLN-R3; antibody 0.1 nM

| Binder | OD450 [OD450] |
| --- | --- |
| B1 | 0.04 |
| B2 | 0.04 |
| B3 | 0.04 |
| B4 | 0.04 |
| B5 | 0.04 |
| B6 | 0.04 |

target: T3, human MSLN-R3-his protein; assay: ELISA on coated MSLN-R3; antibody 100 nM
Protocol: as §1

| Binder | OD450 [OD450] |
| --- | --- |
| B1 | 0.06 |
| B2 | 0.08 |
| B3 | 0.06 |
| B4 | 0.1 |
| B5 | 0.1 |
| B6 | 0.09 |

Target: T1, human MSLN-R1-his protein
Assay: ELISA on coated MSLN-R1; antibody 0.01 nM
Protocol: as §1

| Binder | OD450 [OD450] |
| --- | --- |
| B1 | 0.28 |
| B2 | 0.05 |
| B3 | 0.13 |
| B4 | 0.78 |
| B5 | 0.62 |
| B6 | 0.39 |

target: T2, human MSLN-R2-his protein; assay: ELISA on coated MSLN-R2; antibody 0.01 nM
Protocol: as §1

| Binder | OD450 [OD450] |
| --- | --- |
| B1 | 0.04 |
| B2 | 0.04 |
| B3 | 0.04 |
| B4 | 0.04 |
| B5 | 0.04 |
| B6 | 0.04 |

target: T3, human MSLN-R3-his protein; assay: ELISA on coated MSLN-R3; antibody 0.01 nM
Protocol: as §1

| Binder | OD450 [OD450] |
| --- | --- |
| B1 | 0.04 |
| B2 | 0.04 |
| B3 | 0.04 |
| B4 | 0.04 |
| B5 | 0.04 |
| B6 | 0.04 |

Target: T1, human MSLN-R1-his protein
Assay: ELISA on coated MSLN-R1; antibody 0.001 nM
Protocol: as §1

| Binder | OD450 [OD450] |
| --- | --- |
| B1 | 0.08 |
| B2 | 0.05 |
| B3 | 0.07 |
| B4 | 0.36 |
| B5 | 0.15 |
| B6 | 0.1 |

target: T2, human MSLN-R2-his protein; assay: ELISA on coated MSLN-R2; antibody 0.001 nM

| Binder | OD450 [OD450] |
| --- | --- |
| B1 | 0.05 |
| B2 | 0.04 |
| B3 | 0.04 |
| B4 | 0.05 |
| B5 | 0.04 |
| B6 | 0.04 |

target: T3, human MSLN-R3-his protein; assay: ELISA on coated MSLN-R3; antibody 0.001 nM

| Binder | OD450 [OD450] |
| --- | --- |
| B1 | 0.05 |
| B2 | 0.04 |
| B3 | 0.04 |
| B4 | 0.04 |
| B5 | 0.05 |
| B6 | 0.04 |

Target: T1, human MSLN-R1-his protein
Assay: ELISA on coated MSLN-R1; antibody 0.0001 nM

| Binder | OD450 [OD450] |
| --- | --- |
| B1 | 0.05 |
| B2 | 0.04 |
| B3 | 0.05 |
| B4 | 0.26 |
| B5 | 0.06 |
| B6 | 0.06 |

target: T2, human MSLN-R2-his protein; assay: ELISA on coated MSLN-R2; antibody 0.0001 nM

| Binder | OD450 [OD450] |
| --- | --- |
| B1 | 0.05 |
| B2 | 0.05 |
| B3 | 0.04 |
| B4 | 0.04 |
| B5 | 0.04 |
| B6 | 0.05 |

target: T3, human MSLN-R3-his protein; assay: ELISA on coated MSLN-R3; antibody 0.0001 nM
Protocol: as §1

| Binder | OD450 [OD450] |
| --- | --- |
| B1 | 0.04 |
| B2 | 0.04 |
| B3 | 0.04 |
| B4 | 0.04 |
| B5 | 0.04 |
| B6 | 0.04 |

Target: T1, human MSLN-R1-his protein
Assay: ELISA on coated MSLN-R1; no antibody (blank)
Protocol: as §1

| Binder | OD450 [OD450] |
| --- | --- |
| B1 | 0.05 |
| B2 | 0.05 |
| B3 | 0.04 |
| B4 | 0.04 |
| B5 | 0.05 |
| B6 | 0.05 |

target: T2, human MSLN-R2-his protein; assay: ELISA on coated MSLN-R2; no antibody (blank)

| Binder | OD450 [OD450] |
| --- | --- |
| B1 | 0.05 |
| B2 | 0.05 |
| B3 | 0.04 |
| B4 | 0.04 |
| B5 | 0.05 |
| B6 | 0.05 |

target: T3, human MSLN-R3-his protein; assay: ELISA on coated MSLN-R3; no antibody (blank)

| Binder | OD450 [OD450] |
| --- | --- |
| B1 | 0.05 |
| B2 | 0.05 |
| B3 | 0.04 |
| B4 | 0.04 |
| B5 | 0.05 |
| B6 | 0.05 |
